We go through 2 molecules from US20150218257A1 (published 2015).

In assay [1] the target is T1, HIV-1 YU2 gp160 expressed on the surface of transfected 293/293T cells (HIV-1 strain YU2, UniProt P35961 32-843).
T1 construct: whole, on cells
The assay is described as follows: binding to YU2 gp160 on the cell surface (FIG. 7).

Assay [2] addresses HIV-1 ADA Env (gp160), on transfected 293 cells or on ADA pseudovirus (HIV-1 strain ADA). The assay can be described thus: cell-based or functional assay.
Assay [3] deals with HIV-1 92RW020 Env on pseudovirus (HIV-1 strain 92RW020). The assay can be described thus: cell-based or functional assay.
The target in assay [4] is HIV-1 JR-FL(E168K) Env on pseudovirus (HIV-1 strain JR-FL). The assay is described as follows: cell-based or functional assay.

B1: 1443_C16 (PG16) human monoclonal antibody (antibody, V domains shown)
VH: QEQLVESGGGVVQPGGSLRLSCLASGFTFHKYGMHWVRQAPGKGLEWVALISDDGMRKYHSDSMWGRVTISRDNSKNTLYLQFSSLKVEDTAMFFCAREAGGPIWHDDVKYYDFNDGYYNYHYMDVWGKGTTVTVSS
VL: QSALTQPASVSGSPGQTITISCNGTSSDVGGFDSVSWYQQSPGKAPKVMVFDVSHRPSGISNRFSGSKSGNTASLTISGLHIEDEGDYFCSSLTDRSHRIFGGGTKVTVLG
With B1, in assay [1], the binding result is reported as “binds”. The entries for the “IC50 (ug/ml), pseudovirus neutralisation, TZM-bl assay” value in assay [2], in assay [3] and in assay [4] were 0.004 µg/mL, 0.09 µg/mL and 0.006 µg/mL, respectively.

B2: 1496_C09 (PG9) human monoclonal antibody (antibody, V domains shown)
VH: QRLVESGGGVVQPGSSLRLSCAASGFDFSRQGMHWVRQAPGQGLEWVAFIKYDGSEKYHADSVWGRLSISRDNSKDTLYLQMNSLRVEDTATYFCVREAGGPDYRNGYNYYDFYDGYYNYHYMDVWGKGTTVTVSS
VL: QSALTQPASVSGSPGQSITISCNGTSNDVGGYESVSWYQQHPGKAPKVVIYDVSKRPSGVSNRFSGSKSGNTASLTISGLQAEDEGDYYCKSLTSTRRRVFGTGTKLTVLG
Take B2: the “IC50 (ug/ml), pseudovirus neutralisation, TZM-bl assay” value in assay [2] was determined as 0.2 µg/mL; in assay [3], 0.1 µg/mL.
